In patent US20220017630A1 (JIANGSU SIMCERE PHARMACEUTICAL, published 2022):
Changes are numbered by the printed parent chain.

T1: human TNFR2 on the cell surface (CHO-TNFR2 cells; human Treg cells) (human, UniProt P20333 23-461)
T1 sequence (looked up): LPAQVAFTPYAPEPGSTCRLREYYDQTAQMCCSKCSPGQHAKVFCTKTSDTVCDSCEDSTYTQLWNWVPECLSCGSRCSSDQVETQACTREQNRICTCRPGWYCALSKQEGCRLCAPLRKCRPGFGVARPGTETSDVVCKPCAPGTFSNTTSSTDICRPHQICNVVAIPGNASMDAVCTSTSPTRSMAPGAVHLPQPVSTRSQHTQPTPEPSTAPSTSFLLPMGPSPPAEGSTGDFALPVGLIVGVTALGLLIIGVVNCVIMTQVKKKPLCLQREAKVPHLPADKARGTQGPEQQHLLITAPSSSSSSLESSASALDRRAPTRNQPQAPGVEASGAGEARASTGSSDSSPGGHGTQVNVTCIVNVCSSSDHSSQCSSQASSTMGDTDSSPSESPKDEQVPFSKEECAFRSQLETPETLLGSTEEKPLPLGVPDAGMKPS

T2: cynomolgus TNFR2 (Sino 90102-C08H) (cynomolgus, UniProt A0A2K5VET2 132-366)
T2 construct: also called CynoTNFR2 (His tag)
T2 sequence: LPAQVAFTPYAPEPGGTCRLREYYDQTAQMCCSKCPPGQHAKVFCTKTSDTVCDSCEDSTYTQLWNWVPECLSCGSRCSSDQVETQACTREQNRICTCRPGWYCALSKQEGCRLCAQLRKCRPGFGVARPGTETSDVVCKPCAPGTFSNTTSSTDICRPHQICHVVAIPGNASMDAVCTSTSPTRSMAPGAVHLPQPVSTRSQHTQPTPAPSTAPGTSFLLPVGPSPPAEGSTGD

T3: Human TNFR2 recombinant protein (Sino 10417-H08H) (human, UniProt P20333 23-257)
T3 construct: also called hTNFR2 (His tag)
T3 sequence (looked up): T2 sequence with G16S, P36S, Q117P, H164N, A210E, G216S, V223M

T4: human TNFR2 (Novoprotein, Catalog No. C830) (human, UniProt P20333 23-257, limits assumed)
T4 construct: construct not described; also called TNFR2 protein
T4 sequence (looked up): T2 sequence with G16S, P36S, Q117P, H164N, A210E, G216S, V223M

B1: TNFR2 antibody #352 (antibody, V domains shown)
VH: EVQLQESGPGLVAPSQSLSITCTVSGFSLTSYGVHWVRQPPGKGLEWLVVIWSDGGTTYNSALKSRLSISKDNSKSQVFLKMNSLQTDDTAMYYCARHDDDGYYAMDYWGQGTTVTVSS
VL: DIVLTQSPSLMSASPGEKVTMTCSASSSVGYMYWYQQKPRSSPKPWIYLTSNLASGVPARFSGSGSGTSYSLTISSMEVEDAATYYCQQWSSDPFTFGSGTKLEIK
B2: TNFR2 antibody #365 (antibody, V domains shown)
VH: EVQLQESGPGLVQPSQSLSITCTVSGFSLTSYGVHWVRQSPGKGLEWLGLIWSDGSPDYSAAFISRLSINKDNSKSQVFFKMNSLQADDTAIYYCARNDDGGDYVMDYWGQGTTVTVSS
VL: B1 VL with D1E, S9A, G30S, V79A, S91T, D93N, F95L, S99A
B3: TNFR2 antibody #395 (antibody, V domains shown)
VH: B2 VH with G10V, G33S, L50V, S56G, P57T, N70S, V105A
VL: B1 VL with D1E, S9A, G30S, V79A, D93N, F95L, S99A
B4: TNFR2 antibody #219 (antibody, V domains shown)
VH: EVQLQESGAELVRPGASVKLSCKASGYSFTNYWMNWVKQRPGQGLEWIGMIHPSDTETRLNQNFKDKATLTVDKSSSTSYMQLSSPTSEDSAVYYCARGEGLGAARSVSMDYWGQGTTVTVSS
VL: DILMTQSPSSLSASLGDRVTISCRASQDISNYLNWYQQKPDGTVKVLIYYTAILHSGVPSRFSGSGSGTDYSLTISNLEQEDIATYFCQQGNTLPWTFGGGTKLEIK
B5: TNFR2 antibody #226 (antibody, V domains shown)
VH: B4 VH with T56S, N63K, S79A
VL: B4 VL with L3Q, I53L
B6: TNFR2 antibody #224 (antibody, V domains shown)
VH: EVQLQESGPEIVKPGASVKLSCTASGFNNKDIYMHWVKQRPEQGLEWIGRIDPATGNTKHDPKFQDKATLSSDTSSNTAYLQFSSLTSEDTAVYYCAHSPYGDFGAMDYWGQGTTVTVSS
VL: DIQMTQSPAIMSASLGERVTMTCTASSSVSSNYLHWYQQKPGSSPKLWIYSTSNLPSGVPARFSGSGSGTSYSLTISSMEAEDAATYYCHQYHRSPWTFGGGTKLEIK
B7: TNFR2 antibody #133 (antibody, V domains shown)
VH: EVQLQESGAELVRSGASVKLSCTASGFNIKDYYIQWVKQRPEQGLEWIGWIDPESGNTKYAPKFQDKATMTADTSSNTAYLQLSGLTSEDSAVYYCNAYYDYDGSMDYWGQGTTVTVSS
VL: DIVMTQSPLSLPVSLGDQASISCRSSQSLVHSNGNTYLHWYLQKPGQSPKLLIYKVSNRFSGVPDRFSGSGSGTDFTLKISRVETDDLGVYFCSQSTHVPTWTFGGGTKLEIK
B8: TNFR2 antibody #125 (antibody, V domains shown)
VH: EVQLQESGGGLVQPGGSLNLSCAASGFAFSIYDLSWVRQTPEKRLEWVAYINNGGISTYYSDTVKGRFTISRDNAKNTLYLQMSSLKSEDTAMYYCVRGPFYGSANYFDYWGQGTTVTVSS
VL: DIQMTQSPASLSLSVGETVTITCRASENIYSNLAWYQQKQGKSPQLLVYDATKLAEGVPSRFSGSESGTQYSLKINSLQSEDFGTYYCQHFWVTPWTFGGGTKLEIK
B9: TNFR2 antibody #001 (antibody, V domains shown)
VH: B8 VH with I31T
VL: B8 VL with D1E, Q3V, A25T, N28S, A34P
notes: also called antibody #1

The binders below were run against T1, human TNFR2 on the cell surface … (assay: cell-based or functional assay).

% AUC versus positive control (#52), ADCC against Treg [%]	Binder
61.4	B1
70.7	B2
59.3	B3
52.7	B4
69	B5
48.1	B6
46.6	B7
69.6	B8
80.8	B9

Each binder was assayed against T1, human TNFR2 on the cell surface … (assay: flow cytometry, blocking of TNFα-biotin on CHO-TNFR2 cells; AUC for 002# / AUC for antibody x 100).
Procedure: CHO cells that stably overexpressed human TNFR2 were used for experiments. The cells were resuscitated and passaged until in good state, and the expression level of human TNFR2 on the cells was assessed by FACS. Compared to the isotype control, the assay could be carried out when the fold change of mean fluorescence intensity (MFI) was more than 100 times.
CHO-TNFR2 cells were digested, washed twice with DPBS and stained with Live/Dead (L/D) at room temperature for 20 min, and then seeded at 1×10⁵ cells/50 μl/well. […] The diluted antibodies were added 50 μl/well into wells pre-seeded with cells, and gently blown and mixed to make the final concentrations of the antibodies to 20, 6.67, 2.22, 0.74, 0.247, 0.08, 0.027 and 0 nM, respectively followed by incubation at 4° C. for 30 min. […] After washing twice with the staining buffer, 100 μl/well of PE-streptavidin was added and incubated at 4° C. for 30 min. After additional washing with the staining buffer twice, 150 μl resuspended cells was analyzed using an flow cytometry. Taking the logarithmic value of the antibody concentrations as abscissa and the corresponding MFI value as ordinate, the inhibition curve of the antibody was drawn, and the IC50 value was calculated by four parameters fitting.

AUC % [%]	Binder
116	B1
117	B2
107	B3
93.7	B4
98.7	B5
100	B6
99.9	B7
121	B8
88.3	B9

Each binder was assayed against T2, cynomolgus TNFR2 (Sino 90102-C08H) (assay: ELISA, coated antigen 0.5 ug/ml, antibody 28 ng/ml).
Procedure: (§1) An microplate was pre-coated with 100 μl/well of 0.5 μg/ml human TNFR2 or cynomolgus TNFR2 (the same antigen protein as in Example 4). […] A mouse anti-human IgG Fc-HRP working solution (1:10000 dilution) was added to the plate at 100 μl/well after plate washing, and incubated with shaking at room temperature for 1.0 h. The plate was washed again, a HRP substrate TMB was added for color development prior to the termination of the reaction by adding termination solution. An microplate reader was used to read the absorption value.

ELISA OD [OD]	Binder
3.12	B1
3.15	B2
3.15	B3
3.41	B4
3.28	B5
2.66	B6
3.18	B7
3.25	B8
2.64	B9

The binders below were run against T3, Human TNFR2 recombinant protein (Sino …) (assay: ELISA, coated antigen 0.5 ug/ml, antibody 28 ng/ml).
Procedure: as §1

ELISA OD [OD]	Binder
3.12	B1
3.19	B2
3.17	B3
3.37	B4
3.34	B5
2.23	B6
3.12	B7
3.32	B8
2.81	B9

What follows are binders tested against T2, cynomolgus TNFR2 (Sino 90102-C08H) (assay: SPR Biacore, antibody on Protein A chip, TNFR2 analyte).
Procedure: (§2) In this experiment, Protein A chip was used, and the time required for the chip to capture the diluted antibody was determined by manual run, so that the Rmax of the saturated binding antigen was 50 RU. Human TNFR2 (Sino 10417-H08H) and cynomolgus TNFR2 (Sino 90102-C08H) were diluted to 32, 16, 8, 4, 2 nM. The affinity of antibody and antigen was measured by multi-cycle kinetics. In each cycle, anti-TNFR2 antibodies were injected prior to the injection of gradient concentrations of TNFR2 protein allowing the occurrence of antibody-antigen association and dissociation. After each cycle, the Protein A chip was regenerated with Glycine pH1.5 (to remove the protein on the chip). BIAcore T200 analysis software was used to calculate the affinity KD of antibody binding to antigen.

Kd [nM]	koff [s⁻¹]	kon [M⁻¹ s⁻¹]	Binder
0.943	0.00243	2.57e+06	B1
0.752	0.00308	4.1e+06	B2
0.0977	0.000276	2.83e+06	B3
0.863	0.000481	558000	B4
0.577	0.000318	551000	B5
0.273	0.000116	425000	B6
3.61	0.0102	2.82e+06	B7
0.151	0.000155	1.02e+06	B8
0.279	0.000185	662000	B9

The binders below were run against T3, Human TNFR2 recombinant protein (Sino …) in the same assay as above.
Procedure: as §2

Kd [nM]	koff [s⁻¹]	kon [M⁻¹ s⁻¹]	Binder
1.41	0.00225	1.59e+06	B1
0.952	0.00209	2.2e+06	B2
0.14	0.000237	1.7e+06	B3
0.234	8.4e-05	358000	B4
0.194	7.14e-05	369000	B5
0.101	2.36e-05	233000	B6
2.94	0.00388	1.32e+06	B7
0.0681	5.57e-05	817000	B8
0.161	8.95e-05	556000	B9

These binders were tested against T4, human TNFR2 (Novoprotein, Catalog No. …) (assay: blocking ELISA, TNFα-biotin on coated human TNFR2, antibody 20 nM).
Procedure: A microplate was pre-coated with 100 μl/well of 1 μg/ml human TNFR2 (Novoprotein, Catalog No. C830). […] After washing the plate, a Streptavidin-HRP working solution (1:10000 dilution) was added at 100 μl/well, and incubated with shaking at room temperature for 40 min. The plate was washed again, the HRP substrate TMB was added for color development, the termination solution was added to terminate the reaction, and the microplate reader was used to read the absorption value.

ELISA OD of antibodies to be tested (20 nM) [OD]	Binder
0.474	B1
0.418	B2
0.282	B3
0.28	B4
0.237	B5
0.123	B6
0.454	B7
0.161	B8
0.198	B9
